# Results from IntAct's records for PubMed 17666011.
# Experiments:
# anm12_arath PRMT12 = biological target: T1, anm12_arath PRMT12 (UniProt O82210)
# T1 sequence: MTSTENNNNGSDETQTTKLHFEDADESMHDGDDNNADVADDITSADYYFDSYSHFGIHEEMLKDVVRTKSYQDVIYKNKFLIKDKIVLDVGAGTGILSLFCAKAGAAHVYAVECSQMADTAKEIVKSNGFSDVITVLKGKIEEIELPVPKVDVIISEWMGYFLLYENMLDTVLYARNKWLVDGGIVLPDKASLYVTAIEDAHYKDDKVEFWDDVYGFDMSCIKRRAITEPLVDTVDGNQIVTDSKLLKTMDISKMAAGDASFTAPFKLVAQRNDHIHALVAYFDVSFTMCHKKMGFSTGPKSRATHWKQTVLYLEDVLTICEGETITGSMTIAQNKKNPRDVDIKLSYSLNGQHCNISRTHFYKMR
# anm11_arath PRMT11 = biological target: T2, anm11_arath PRMT11 (UniProt Q9SU94)
# T2 sequence: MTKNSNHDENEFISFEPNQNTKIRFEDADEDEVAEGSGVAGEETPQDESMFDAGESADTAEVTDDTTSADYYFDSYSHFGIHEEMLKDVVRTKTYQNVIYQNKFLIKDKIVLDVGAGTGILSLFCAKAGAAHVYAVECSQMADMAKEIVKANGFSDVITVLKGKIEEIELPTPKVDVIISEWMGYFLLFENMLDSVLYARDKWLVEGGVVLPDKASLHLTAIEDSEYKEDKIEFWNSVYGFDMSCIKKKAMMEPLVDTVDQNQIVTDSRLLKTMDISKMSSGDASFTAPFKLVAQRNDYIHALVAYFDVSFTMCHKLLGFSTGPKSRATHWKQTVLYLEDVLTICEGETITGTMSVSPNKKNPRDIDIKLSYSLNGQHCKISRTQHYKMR
substance,measurement,setting,value
Histone H4 (Homo sapiens) (from UniProt P62805) R20K,effect of a mutation on the interaction,anm12_arath PRMT12,disrupting interaction
same,effect of a mutation on the interaction,anm11_arath PRMT11,disrupting interaction
